Test [1] has as its target hCA-IX-ECD monomeric (monomeric parental CA-IX extracellular domain) (human, UniProt Q16790 38-414). The test can be described thus: SPR; CA-IX immobilized on SA sensor chip, VHH injected. How it is done:
(§1) In vitro binding affinity/SPR. To evaluate the binding affinity (KD) of the VHH only format of the 4 single domain antibodies, CA-IX monomer and dimer were immobilized on SA sensor chip (GE Healthcare) and serial dilutions of the sdAbs were injected over the surface (FIG. 3A).

The target in test [2] is T1, hCA-IX ECD dimer (dimeric extracellular domain of hCA-IX) (human, UniProt Q16790 38-414). Described as above. How it is done:
as §1

Test [3] deals with T2, mouse CA-IX (mouse, UniProt Q8VHB5 32-390, limits assumed). The test can be described thus: ELISA on purified protein, binding above background. A general note: ELISA stands for enzyme-linked immunosorbent assay.
Test [4] deals with T3, human CA-IV (human, UniProt P22748 19-283, limits assumed).
T3 construct: also called carbonic anhydrase IV
Described as above.

Test [5] deals with T4, human CA-XII (human, UniProt O43570 25-291, limits assumed).
T4 construct: also called carbonic anhydrase XII
Described as above.

Test [6] has as its target human CA-II (human, UniProt P00918 1-260). The description is as above.
Test [7] addresses T5, human CA-XIV (human, UniProt Q9ULX7 16-290, limits assumed).
T5 construct: also called carbonic anhydrase XIV
Described as above.

In test [8] the target is T1, hCA-IX ECD dimer (dimeric extracellular …). The test can be described thus: cell-based or functional assay.
In test [9] the target is T2, mouse CA-IX. The test can be described thus: ELISA on purified protein, 500 nM VHH, binding above background. As for the experimental part: Cross reactivity and CA-IX specificity. Binding specificity and species cross reactivity of two sdAb were tested in an ELISA assay using purified proteins for human, mouse, cynomolgus monkey and dog CA-IX.

Usually Kd stands for the concentration at which binding is half-saturated.

T2 sequence (Q8VHB5 32-390 limits assumed): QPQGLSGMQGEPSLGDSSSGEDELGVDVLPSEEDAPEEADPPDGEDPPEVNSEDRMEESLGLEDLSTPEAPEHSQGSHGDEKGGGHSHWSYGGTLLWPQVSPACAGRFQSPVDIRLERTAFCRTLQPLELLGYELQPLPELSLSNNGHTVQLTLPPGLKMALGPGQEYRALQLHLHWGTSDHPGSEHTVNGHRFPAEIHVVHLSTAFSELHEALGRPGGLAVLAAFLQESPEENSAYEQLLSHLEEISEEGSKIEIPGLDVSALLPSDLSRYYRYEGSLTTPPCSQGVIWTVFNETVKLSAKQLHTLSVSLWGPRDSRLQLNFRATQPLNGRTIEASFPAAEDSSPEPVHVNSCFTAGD
T3 sequence (P22748 19-283 limits assumed): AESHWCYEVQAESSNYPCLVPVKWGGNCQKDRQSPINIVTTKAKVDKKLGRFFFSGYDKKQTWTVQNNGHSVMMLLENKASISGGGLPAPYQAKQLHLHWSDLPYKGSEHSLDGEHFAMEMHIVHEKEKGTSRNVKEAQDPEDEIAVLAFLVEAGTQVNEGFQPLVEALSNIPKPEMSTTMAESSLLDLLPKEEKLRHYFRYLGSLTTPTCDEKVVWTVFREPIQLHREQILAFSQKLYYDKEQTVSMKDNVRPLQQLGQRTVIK
T4 sequence (O43570 25-291 limits assumed): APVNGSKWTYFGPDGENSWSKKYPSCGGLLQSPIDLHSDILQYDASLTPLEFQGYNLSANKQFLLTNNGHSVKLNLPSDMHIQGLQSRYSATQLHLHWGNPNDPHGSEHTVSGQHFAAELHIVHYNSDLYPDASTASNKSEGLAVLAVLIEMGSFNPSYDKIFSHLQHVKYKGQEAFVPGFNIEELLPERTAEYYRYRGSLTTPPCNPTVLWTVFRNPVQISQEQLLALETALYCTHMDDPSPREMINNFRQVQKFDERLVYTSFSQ
T5 sequence (Q9ULX7 16-290 limits assumed): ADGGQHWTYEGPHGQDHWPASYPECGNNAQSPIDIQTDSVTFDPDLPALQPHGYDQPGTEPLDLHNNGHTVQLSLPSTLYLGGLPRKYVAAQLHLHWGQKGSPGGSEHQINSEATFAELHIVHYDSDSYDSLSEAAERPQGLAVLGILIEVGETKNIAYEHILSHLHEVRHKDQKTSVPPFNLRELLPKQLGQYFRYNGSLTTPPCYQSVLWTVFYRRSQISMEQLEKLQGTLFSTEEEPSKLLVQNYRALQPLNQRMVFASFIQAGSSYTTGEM

B1: sdCA9-2-VHH (VHH)
VHH: QVKLEESGGDLVQPGGSLRLSCAASGFTLDYYAIGWFRQAPGKEREGVSCFSSVDGSTYYADSVKGRFTISRDNAKNMVYLQMNSLKPEDTAIYYCAAELYGELGVATVQAMCRLTTPGGDYWGQGTQVTVSS
notes: Llama VHH expressed in E. coli from the pSJF2 vector and purified by IMAC
On to B1, for which the Kd in [1] worked out at 234 nM; in [2] it was 176 nM. Also, the binding result in test [3], in [4], in test [5], in test [6] and in test [7] was “no binding (tested: 500 nM)” in each case. In addition, the “IC50 (hCA-IX in vitro enzyme activity, 4Mu-Ac hydrolysis)” value in test [8] is 0.0484 µM (unit not printed; the text gives the values in nM). Further, the “logIC50 (hCA-IX in vitro enzyme activity, 4Mu-Ac hydrolysis)” value in [8] was -1.13 log10 of IC50 (IC50 in µM; unit not printed).

B2: sdCA9-1-VHH (VHH)
VHH: QVQLVESGGGLVQAGGSLRLSCAASGFTFDDWAIGWFRQAPGKEREGVSCISKRHGTTHYADSVKGRFTISSDNAKNTVYLRMNGLKPEDTAVYYCAASSWGSCTVATMRDVDRYDYDYWGQGTQVTVSS
notes: as for B1
With B2, the values for the Kd in test [1] and in [2] were 28.9 nM and 37 nM, respectively. Also, the binding result in test [4] is given as “no binding (tested: 500 nM)”; in test [5], “no binding (tested: 500 nM)”; in test [6], “no binding (tested: 500 nM)”; in test [7], “no binding (tested: 500 nM)”; in test [9], “binds”. Besides, the “IC50 (hCA-IX in vitro enzyme activity, 4Mu-Ac hydrolysis)” value in test [8] was 0.111 µM (unit not printed; the text gives the values in nM). Also, in test [8], the “logIC50 (hCA-IX in vitro enzyme activity, 4Mu-Ac hydrolysis)” value is -0.954 log10 of IC50 (IC50 in µM; unit not printed).

B3: sdCA9-3-VHH (VHH)
VHH: QVQLVESGGGLVQAGDSLRLSCAASGGTFSRYGMGWFRQAPGKEREFVAAISGTGLNTYYMDSVKGRFTISRDNAENTVYLQMNSLKPEDTAVYYCARDRGGVEYDYWGQGTQVTVSS
notes: Llama VHH expressed in E. coli from the pSJF2 vector and purified by IMAC; also called sdCA9-3-VHH-VHH
As for B3, the figures for the Kd in test [1] and in test [2] were 314 nM and 341 nM, respectively.

The record behind these values is patent publication US20240076406A1 (NATIONAL RESEARCH COUNCIL OF CANADA, published 2024).
